# Source: paper PMC5103873
# Assays:
# [1] = target: parathyroid hormone receptor 1 (PTH1R) wild type, N-terminally HA-tagged, C-terminally eYFP-labelled (human) (UniProt Q03431)
# [2] = target: PTH1R PD3 mutant (mutations of clusters 1 and 2 combined), HA- and eYFP-tagged (human) (UniProt Q03431)
# arrestin3 [3] = test: BRET, arrestin3–Rluc / PTH1R–eYFP; details: reference: wild type
# arrestin3 [4] = test: dual-color FRAP of arrestin3–CFP; details: reference: wild type
# arrestin3 [5] = test: single-cell FRET, PTH1R–eYFP / arrestin3–CFP
# [6] = sites S489,S491,S492,S493,S495,S501,T503,S504,T506
substance,measurement,setting,value
PTH(1–34) (peptide),"pEC50 of PTH(1–34) for cAMP accumulation (HTRF) in HEK293 cells transfected with HA–PTH1R WT (without YFP), 15 min, 100 µM IBMX",[1],10.9
same,"pEC50 of PTH(1–34) for cAMP accumulation (HTRF) in HEK293 cells transfected with HA–PTH1R PD3 (without YFP), 15 min, 100 µM IBMX",[2],11.3
PTH1R (parathyroid hormone receptor 1) (from UniProt Q03431) PD1 (cluster 1 S/T to Ala),percent of reference (% of WT maximum BRET),"arrestin3 [3]; sites S489,S491,S492,S493,S495",80.8
same,other: arrestin3 recovery after photobleaching,"arrestin3 [4]; sites S489,S491,S492,S493,S495",same; reference 19.07 ± 0.68–23.94 ± 0.86
same,other: reduction of FRET signal vs WT,"arrestin3 [5]; reference: wild type, sites S489,S491,S492,S493,S495",42.1%
PTH1R (parathyroid hormone receptor 1) (from UniProt Q03431) PD2 (cluster 2 S/T to Ala),percent of reference (% of WT maximum BRET),"arrestin3 [3]; sites S501,T503,S504,T506",66.9
same,other: arrestin3 recovery after photobleaching,"arrestin3 [4]; sites S501,T503,S504,T506",weaker; reference 19.07 ± 0.68–23.94 ± 0.86
PTH1R (parathyroid hormone receptor 1) (from UniProt Q03431) 100 nM PTH(1–34),other: increase in FRET,arrestin3 [5]; reference: before agonist,24.8%
"PTH1R (parathyroid hormone receptor 1) (from UniProt Q03431) T503A, S504A",other: arrestin3 recovery after photobleaching,"arrestin3 [4]; sites T503,S504",weaker; reference 19.07 ± 0.68–23.94 ± 0.86
same,other: agonist-induced FRET change,"arrestin3 [5]; reference: wild type, sites T503,S504",weaker; reference 24.8 ± 12.7
PTH1R (parathyroid hormone receptor 1) (from UniProt Q03431) PD3 (clusters 1 and 2 S/T to Ala),percent of reference (% of WT maximum BRET),arrestin3 [3]; [6],46.6
same,other: arrestin3 recovery after photobleaching,arrestin3 [4]; [6],weaker; reference 19.07 ± 0.68–23.94 ± 0.86
